Assay results taken from patent publication CN111690058A.
pKd: −log10 of the molar value.

Biological target: S蛋白RBD-His (319Arg-532Asn) (2019-nCoV (SARS-CoV-2)) (UniProt P0DTC2)
Assay: BLI (Fortebio), RBD-His on Anti-Penta-HIS sensor, antibody in solution

对照抗体CR3022 (antibody)
pKd: 8.62
koff: 0.000278 s⁻¹
kon: 115000 M⁻¹ s⁻¹
